Assay [1] addresses T1, SARS-CoV-2 receptor binding domain (RBD), native (SARS-CoV-2, UniProt P0DTC2 330-532).
T1 construct: range 330-532
As to the kind of experiment: BLI, RBD/Fab; de-glycosylated Fab 88. (Biolayer interferometry detects binding as a change in optical thickness at a sensor tip.)

In assay [2] the target is T1, SARS-CoV-2 receptor binding domain …. As to the kind of experiment: BLI, RBD/Fab; glycosylated Fab 88.
Assay [3] has the same target. As to the kind of experiment: BLI, RBD/Fab; de-glycosylated Fab 316.
The target of assay [4] is T2, SARS-CoV-2 spike receptor binding domain (RBD), His-tagged (SARS-CoV-2 (Wuhan-Hu-1 strain), UniProt P0DTC2 330-532).
T2 construct: range 330-532
As to the kind of experiment: X-ray crystal structure of the ternary complex RBD/Fab 253/Fab 75.

In assay [5] the target is T1, SARS-CoV-2 receptor binding domain …. As to the kind of experiment: method and antigen not stated there.

B1: Fab 88, de-glycosylated (Fab, V domains shown)
VH: QLQLQESGPGLVKPSQTLSLTCTVSGGSISSGSYNWTWIRQPAGKGLEWIGRIYNSGSTNYNPSLKSRVTISVDTSKNQLSLKVRSVTAADTAVYYCARHCSGGTCYPKYYYGMDVWGQGTTVTVSS
VL: QSALTQPPSVSEAPRQRVTISCSGSSSNIGNNAVNWYQQFPGKAPKLLIYYDDLLPSGVSDRFSGSKSGTSASLAISGVQSEDEADYYCAAWDDSLNVVVFGGGTKLTVL
As for B1, in assay [1], the Kd (usually the concentration at which binding is half-saturated) was 0.8 nM. In other words, the sub-nanomolar range.

B2: Fab 88 (Fab, V domains shown)
VH: B1 VH
VL: B1 VL
notes: also called 88 Fab (glycosylated)
Molecule B2 gave a Kd in assay [2] of 1.2 nM.

B3: Fab 316, de-glycosylated (Fab, V domains shown)
VH: not shown
VL: QAVLTQPPSASGSPGQSVTISCTGTSSDVGGYNYVSWYQQHPGKAPKLMIYEVSKRPSGVPDRFSGSKSGNTASLTVSGLQAEDEADYYCSSYAGSNHWVFGGGTKLTVL
The molecule B3 yielded a Kd in assay [3] of 1 nM.

B4: Fab 75 (Fab, V domains shown)
VH: QVQLVESGGGVVQPGRSLRLSCAASGFTFNNYPLHWVRQAPGKGPEWVAVISQDGGNKYYVDSVKGRFTISRDNSKNTLYLQMNNLRAEDTALYYCARDVVVVVAARNHYYNGMDVWGQGTTVTVSS
VL: DIQLTQSPSSVSASVGDRVTITCRASQGISSWLAWYQQKPGKAPKLLIYAVSSLQSGVPSRFSGSGSGTDFTLTISSLQPEDFATYYCQQAKSFPFTFGPGTKVEIK
On to B4, for which the binding result in assay [4] is recorded as “binds”.

B5: mAb 45 (antibody, V domains shown)
VH: QVQLVESGGGVVQPGRSLRLSCAASGFTFSTYAMHWVRQAPGKGLEWVAVLSYDGSNKYYADSVKGRFTISRDNSKNTLYLQMNSLRAEDTAVYYCAKGGSYAYYYYMDVWGKGTTVTVSS
VL: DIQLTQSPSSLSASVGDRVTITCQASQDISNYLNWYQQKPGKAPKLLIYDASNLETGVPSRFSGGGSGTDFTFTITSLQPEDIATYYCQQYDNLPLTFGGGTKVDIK
notes: also called antibody 45
Consider B5, for which the Kd in assay [5] came out at 0.018 µg/mL.

(Values after US20240043507A1 (RQ BIOTECHNOLOGY, published 2024).)
